Experimental findings from publication PMC7039410 (Nature, 2019) are described below.

The series “AUC” deals with the molecule itself. Kind of series: AUC.
Series [1] addresses histone H2B, in the mononucleosome (X. laevis, UniProt P02281 2-126). Kind of series: cross-linking.

In general, stoichiometry N refers to the number of molecules, sites or subunits per partner or assembly.

B1: Swi6 (natural protein)
chain: MKKGGVRSYRRSSTSKRSVIDDDSEPELPSMTKEAIASHKADSGSSDNEVESDHESKSSSKKLKENAKEEEGGEEEEEDEYVVEKVLKHRMARKGGGYEYLLKWEGYDDPSDNTWSSEADCSGCKQLIEAYWNEHGGRPEPSKRKRTARPKKPEAKEPSPKSRKTDEDKHDKDSNEKIEDVNEKTIKFADKSQEEFNENGPPSGQPNGHIESDNESKSPSQKESNESEDIQIAETPSNVTPKKKPSPEVPKLPDNRELTVKQVENYDSWEDLVSSIDTIERKDDGTLEIYLTWKNGAISHHPSTITNKKCPQKMLQFYESHLTFRENE
Turning to B1, the “stoichiometry N” value in the series “AUC” came to 2. Moreover, in series [1], the binding result is “binds”.
